Test results reported in the supplement of paper PMC9732359.
± gives the uncertainty stated by the source.

Assay: protein stability index of a GFP-peptide fusion (yeast GPS) (PSI 1-4); higher = more stable; sorted into four equal gates, so the index is relative within each strain
Method in brief: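 Sequencing reads from sorted gates were used to score each peptide. The library consisted of tiled 17-residue yeast protein peptides fused downstream of GFP on a Cherry-expressing plasmid, pooled and carried in yeast. Mid-log cultures in leucine-free medium were split into four equal gates by GFP/Cherry ratio, and each gate's plasmids were PCR-amplified and Illumina-sequenced. The protein stability index adds up, over all gates, the read frequency multiplied by the gate number.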

Sequence: MQANTNALRRNLLKDEG [SSN3]
- protein stability index (doa10∆): 2.94 ± 0.11
- protein stability index (pdr5∆): 3.1 ± 0.25
- protein stability index (san1∆): 2.98 ± 0.21
- protein stability index (ubr1∆): 3.2 ± 0.27

Sequence: MQDPDGIDINTKIFNSV [YCG1]
- protein stability index (doa10∆): 2.93 ± 0.21
- protein stability index (pdr5∆): 3.04 ± 0.12
- protein stability index (san1∆): 2.54 ± 0.17
- protein stability index (ubr1∆): 2.89 ± 0.068

Sequence: MQRHVKVDGKVRTDTTY [RPS4A]
- protein stability index (doa10∆): 3.26 ± 0.1
- protein stability index (pdr5∆): 3.28 ± 0.083
- protein stability index (san1∆): 3.03 ± 0.088
- protein stability index (ubr1∆): 3.06 ± 0.063

Sequence: MRILSNDITNLQLSKTP [SRB8]
- protein stability index (doa10∆): 2.59 ± 0.058
- protein stability index (pdr5∆): 2.71 ± 0.08
- protein stability index (san1∆): 2.92 ± 0.052
- protein stability index (ubr1∆): 2.8 ± 0.046

Sequence: MRSTSILTEHLGYPPIS [MTW1]
- protein stability index (doa10∆): 2.9 ± 0.076
- protein stability index (pdr5∆): 2.74 ± 0.065
- protein stability index (san1∆): 2.87 ± 0.062
- protein stability index (ubr1∆): 3.06 ± 0.091

Sequence: MSDEDNNYDDFMLSDDE [RRI2]
- protein stability index (pdr5∆): 3.58 ± 0.23
- protein stability index (san1∆): 3.28 ± 0.25

Sequence: MSDPSSINGGIVVAMTG [PUP3]
- protein stability index (pdr5∆): 2.39 ± 0.21

Sequence: MSGAAAASAAGYDRHIT [SCL1]
- protein stability index (doa10∆): 3.08 ± 0.24
- protein stability index (pdr5∆): 2.87 ± 0.16
- protein stability index (san1∆): 3.27 ± 0.12
- protein stability index (ubr1∆): 2.94 ± 0.14

Sequence: MSHRKYEAPRHGHLGFL [RPL3]
- protein stability index (pdr5∆): 3.15 ± 0.19
- protein stability index (san1∆): 2.9 ± 0.099
- protein stability index (ubr1∆): 2.94 ± 0.23

Sequence: MSLPATFDLTPEDAQLL [RPS0A]
- protein stability index (doa10∆): 2.75 ± 0.079
- protein stability index (pdr5∆): 2.83 ± 0.12
- protein stability index (san1∆): 2.47 ± 0.15
- protein stability index (ubr1∆): 2.31 ± 0.11

Sequence: MSLSNKTVKELRQLLKE [RRI1]
- protein stability index (doa10∆): 1.95 ± 0.094
- protein stability index (pdr5∆): 1.42 ± 0.083
- protein stability index (san1∆): 1.28 ± 0.11
- protein stability index (ubr1∆): 1.85 ± 0.15

Sequence: MSLSVAEKSYLYDSLAS [RRP42]
- protein stability index (pdr5∆): 1.64 ± 0.18

Sequence: MSREGFQIPTNLDAAAA [RPC10]
- protein stability index (doa10∆): 1.28 ± 0.1
- protein stability index (pdr5∆): 1.08 ± 0.082
- protein stability index (san1∆): 1.35 ± 0.16
- protein stability index (ubr1∆): 1.16 ± 0.2

Sequence: MSRPQVTVHSLTGEATA [RPL4A]
- protein stability index (doa10∆): 1.59 ± 0.09
- protein stability index (pdr5∆): 2.28 ± 0.07
- protein stability index (san1∆): 1.88 ± 0.059
- protein stability index (ubr1∆): 2.07 ± 0.082

Sequence: MSSAAEKKPASKAPAEK [HTB2]
- protein stability index (doa10∆): 2.74 ± 0.064
- protein stability index (pdr5∆): 3.3 ± 0.081
- protein stability index (san1∆): 2.69 ± 0.08
- protein stability index (ubr1∆): 2.91 ± 0.054

Sequence: MSSTTPKLESVKWQYDP [SNF12]
- protein stability index (doa10∆): 3.16 ± 0.065
- protein stability index (pdr5∆): 3.25 ± 0.066
- protein stability index (san1∆): 3.09 ± 0.048
- protein stability index (ubr1∆): 3.39 ± 0.062

Sequence: MSVQDTKAVEFSMGHIR [MED4]
- protein stability index (doa10∆): 3.24 ± 0.11
- protein stability index (pdr5∆): 3.37 ± 0.093
- protein stability index (san1∆): 3.22 ± 0.069
- protein stability index (ubr1∆): 2.9 ± 0.088

Sequence: MTLKEMYQMITMGGNAE [SMC4]
- protein stability index (doa10∆): 2.72 ± 0.065
- protein stability index (pdr5∆): 2.41 ± 0.056
- protein stability index (san1∆): 2.44 ± 0.058
- protein stability index (ubr1∆): 2.77 ± 0.068

Sequence: MTMLTPNYLHLVSSYLN [YML103C/NUP188]
- protein stability index (doa10∆): 1.82 ± 0.039
- protein stability index (pdr5∆): 1.66 ± 0.035
- protein stability index (san1∆): 1.69 ± 0.051
- protein stability index (ubr1∆): 1.4 ± 0.032

Sequence: MTMQVAVPRDELGRSNY [FAS1]
- protein stability index (doa10∆): 2.7 ± 0.085
- protein stability index (pdr5∆): 3 ± 0.11
- protein stability index (san1∆): 2.99 ± 0.047
- protein stability index (ubr1∆): 2.99 ± 0.092

Sequence: MTTFRFCRDCNNMLYPR [RPB9]
- protein stability index (doa10∆): 2.78 ± 0.14
- protein stability index (pdr5∆): 3.14 ± 0.11
- protein stability index (san1∆): 3.41 ± 0.14
- protein stability index (ubr1∆): 2.99 ± 0.068

Sequence: MTTSAVSPTVGKLFSDI [YIL149C/MLP2]
- protein stability index (doa10∆): 3.1 ± 0.073
- protein stability index (pdr5∆): 3.33 ± 0.064
- protein stability index (san1∆): 3.24 ± 0.044
- protein stability index (ubr1∆): 3.16 ± 0.036

Sequence: MTTWRKLYTKELSVTGS [YMR129W/POM152]
- protein stability index (doa10∆): 2.06 ± 0.078
- protein stability index (pdr5∆): 1.34 ± 0.072
- protein stability index (san1∆): 1.41 ± 0.14
- protein stability index (ubr1∆): 1.14 ± 0.04

Sequence: MVDESDKKQQTIDEQSQ [RPN1]
- protein stability index (doa10∆): 3.17 ± 0.16
- protein stability index (pdr5∆): 3.25 ± 0.16
- protein stability index (san1∆): 3.38 ± 0.11
- protein stability index (ubr1∆): 3.43 ± 0.12

Sequence: MVKNVKPSSPPDVKSLV [SIR4]
- protein stability index (doa10∆): 3.23 ± 0.11
- protein stability index (pdr5∆): 3.12 ± 0.063
- protein stability index (san1∆): 2.97 ± 0.085
- protein stability index (ubr1∆): 3.13 ± 0.068

Sequence: MVLRKQKRYTVKKALAK [RPL14A]
- protein stability index (doa10∆): 2.08 ± 0.14
- protein stability index (pdr5∆): 2.13 ± 0.1
- protein stability index (ubr1∆): 1.55 ± 0.19

Sequence: MVLRNVMEYDVKFYEIF [SRB8]
- protein stability index (doa10∆): 1.88 ± 0.081
- protein stability index (pdr5∆): 2 ± 0.099
- protein stability index (san1∆): 1.62 ± 0.099
- protein stability index (ubr1∆): 2.1 ± 0.067

Sequence: MVRLKSRYILFEIIFPP [POP5]
- protein stability index (doa10∆): 1.47 ± 0.067
- protein stability index (pdr5∆): 1.42 ± 0.054
- protein stability index (san1∆): 1.52 ± 0.084
- protein stability index (ubr1∆): 1.5 ± 0.047

Sequence: MVTSNVVLVSGEGERFT [SKP1]
- protein stability index (doa10∆): 2.11 ± 0.14
- protein stability index (pdr5∆): 2.56 ± 0.086
- protein stability index (san1∆): 2.26 ± 0.12
- protein stability index (ubr1∆): 1.73 ± 0.081

Sequence: MYTRLCICSGMLFEMDG [SIN4]
- protein stability index (doa10∆): 1.45 ± 0.038
- protein stability index (pdr5∆): 1.41 ± 0.038
- protein stability index (san1∆): 1.48 ± 0.073
- protein stability index (ubr1∆): 1.42 ± 0.029

Sequence: NAAVAGVANTDTAGEES [SWI3]
- protein stability index (doa10∆): 3.06 ± 0.061
- protein stability index (pdr5∆): 3.27 ± 0.062
- protein stability index (san1∆): 3 ± 0.046
- protein stability index (ubr1∆): 3.15 ± 0.056

Sequence: NAEAKGLDATKLYVSHI [RPL17A]
- protein stability index (doa10∆): 3.23 ± 0.16
- protein stability index (pdr5∆): 3.13 ± 0.092
- protein stability index (san1∆): 3.01 ± 0.05
- protein stability index (ubr1∆): 3.03 ± 0.071

Sequence: NAIIEANLGKYGILSID [RPL7A]
- protein stability index (doa10∆): 2.87 ± 0.17
- protein stability index (pdr5∆): 2.97 ± 0.14
- protein stability index (san1∆): 2.84 ± 0.094
- protein stability index (ubr1∆): 2.89 ± 0.15

Sequence: NAKDIQIPVYDTFDGSD [FAS1]
- protein stability index (doa10∆): 2.47 ± 0.078
- protein stability index (pdr5∆): 2.56 ± 0.07
- protein stability index (san1∆): 2.07 ± 0.052
- protein stability index (ubr1∆): 2.29 ± 0.064

Sequence: NALEHKYFTESDIPVSE [SSN3]
- protein stability index (doa10∆): 2.3 ± 0.081
- protein stability index (pdr5∆): 2.75 ± 0.11
- protein stability index (san1∆): 2.76 ± 0.082
- protein stability index (ubr1∆): 2.94 ± 0.096

Sequence: NANIFSSVKCFGPIKVE [FAS1]
- protein stability index (doa10∆): 2.04 ± 0.068
- protein stability index (pdr5∆): 1.63 ± 0.046
- protein stability index (san1∆): 2.17 ± 0.067
- protein stability index (ubr1∆): 1.51 ± 0.058

Sequence: NANRVFRTRFQDGTSVV [SMC2]
- protein stability index (doa10∆): 2.74 ± 0.16
- protein stability index (pdr5∆): 1.29 ± 0.1
- protein stability index (san1∆): 2.31 ± 0.26
- protein stability index (ubr1∆): 2.34 ± 0.085

Sequence: NARKVVGASVVVVKNWG [RPS12]
- protein stability index (doa10∆): 2.83 ± 0.15
- protein stability index (pdr5∆): 2.69 ± 0.13
- protein stability index (san1∆): 2.12 ± 0.24
- protein stability index (ubr1∆): 2.67 ± 0.084

Sequence: NATHDEDEFIVQHDQIL [SWP82]
- protein stability index (doa10∆): 2.93 ± 0.036
- protein stability index (pdr5∆): 3.13 ± 0.032
- protein stability index (san1∆): 2.96 ± 0.032
- protein stability index (ubr1∆): 3.044 ± 0.023
